Data published in the supplement of paper PMC10567573.

B1: DVL3 (parent)
chain: YNPHPGFPELGYSYGGGSASSQHS
B2: POMT2 (parent)
chain: YHEAPMTRKHYQVTGYGINGTGDS

Variants of: B1
Assay: protein stability index of a GFP-peptide fusion (GPS, HEK-293T) (PSI 1-6); higher = more stable
Conditions: c terminus: a fixed tail appended
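Further: lentivirally expressed fusions sorted by FACS into six bins by GFP to DsRed ratio, PSI derived from sequencing read proportions per bin multiplied by bin number.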

Protein stability index, by site and new letter:
Y14: V 3.26; W 2.76; K 2.95; G 3.69; M 2.86; I 2.64; Q 3.15; T 3.24; A 3.77; L 2.69; F 2.4; E 4.1; P 3.32; H 3.71; S 3.48; N 3.59; D 3.38; R 3.05; C 3.1
E9: C 2.5; M 2.69; A 2.3; Q 2.04; I 1.18; R 2.44; D 2.11; T 1.84; G 2.16; Y 1.14; S 1.59; H 2.19; P 3.58; N 2.46; L 3.13; K 1.8
P3: N 2.79; F 2.7; M 3.01; G 2.19; Y 3.18; C 3.32; H 2.95; E 2.75; I 2.86; V 3.08; T 3.08; W 2.51; L 3.46; A 3.07; S 2.67; K 3.43; Q 3.05; R 3.17; D 2.81
L10: C 3.06; R 3.64; P 3.04; F 2.92; M 2.04; W 1.3; Y 2.57; A 3.17; I 2.6; V 3.17; S 3.16; D 3.55; T 2.98; Q 3.18; K 3.05; H 3.4; N 3.74; E 4.41; G 2.94
P8: Q 2.67; F 2.23; M 2.52; I 1.71; L 2.12; T 3.11; C 2.54; A 2.37; N 3; E 3.16; S 2.73; H 2.38; Y 2.33; D 3.37; G 3.26; W 2.48; V 2.57; K 2.38; R 2.7
G11: I 2.24; Q 3.29; W 2.29; N 2.72; K 3.13; D 2.82; R 3.24; V 2.44; M 3.03; T 2.76; L 2.04; H 2.46; Y 2.66; S 2.71; C 2.3; E 3.4; A 2.76; P 2.29
Y12: T 3.01; W 2.19; G 3.51; S 3.15; K 2.47; D 4.19; Q 3.42; C 2.27; I 2.06; L 2.03; M 3.29; E 3.79; P 1.99; V 1.74; A 2.87; F 3.09; H 3.26; N 3.96; R 2.68
H4: V 2.75; N 2.73; A 2.06; Q 2.56; K 3.61; S 2.1; D 3.9; E 2.7; P 2.29; I 2.51; W 2.44; L 2.77; T 2.34; G 2.01; Y 2.35; F 2.16; C 2.58; R 2.8; M 2.69
P5: R 2.37; H 2.36; G 2.32; F 2.44; W 2.2; Q 3.26; N 2.75; K 2.31; C 2.22; M 2.31; A 2.58; L 2.59; Y 2.35; V 2.41; D 3.67; E 3.27; I 2.4; T 2.36; S 2.64
N2: F 2.32; C 2.12; A 1.96; R 3.09; W 2.48; P 1.97; I 2.37; M 2.55; H 3.33; G 3.06; Y 2.87; D 3.64; T 2.23; Q 2.33; V 1.82; S 2.72; L 2.16; K 3.28; E 3.75
S13: P 2.58; M 2.67; W 2.53; I 2.24; H 2.59; K 2.94; L 2.13; E 3.71; R 2.85; V 1.71; Y 2.19; T 2.23; A 2.95; Q 3; N 3.08; C 1.78; G 2.55; F 1.95; D 3.52
G16: T 2.57; R 2.63; F 1.79; A 3.45; N 2.99; M 2.79; S 2.95; P 2.74; I 2; Q 3.02; D 3.4; L 2.3; H 2.72; E 3.61; K 2.93; C 2.04
Y1: W 3.49; H 3.39; E 4.73; F 2.16; Q 4.53; A 4.36; S 3.75; R 3.52; M 3.37; L 3.88; V 3.12; D 4.18; C 2.33; G 4.47; I 3; P 4.24; N 4.11; T 4.25; K 3.94
G6: L 2.48; D 3.14; I 2.38; S 2.69; H 2.67; V 2.7; Y 2.17; R 2.46; W 1.74; N 2.93; T 2.28; Q 3.44; A 2.78; M 2.74; K 3.05; E 3.84; C 2.53; F 2.42
G15: N 2.63; Y 1.82; A 2.43; V 2.22; F 2.54; M 2.57; K 2.91; T 3.05; H 2.3; D 3.37; P 2.9; E 3.33; R 2.33; Q 2.63; I 2.63; S 2.86; C 2.11; W 2.3; L 2.24
F7: E 2.7; P 3.44; H 2.98; Q 3.23; C 2.85; S 2.59; T 3.44; N 3.38; L 3.35; G 3; K 3.68; D 2.44; V 3.01; A 2.6; W 2.14; I 2.87; R 2.86; Y 2.68; M 3.19

Variants of: B2
Assay: as above
Conditions: c terminus: a fixed tail appended

Protein stability index, by site and new letter:
S24: G 2.57; T 1.98; V 2.44; E 2.29; D 2.41; N 2.11; M 1.79; P 2.23; H 1.99; Q 1.68; W 1.49; L 1.64; K 2.57; A 2.15; F 1.76; R 2.17; C 1.81; Y 2.1; I 2.16
D23: P 2.02; V 2.42; N 2.17; F 1.63; G 2.88; S 2.14; H 2.03; T 1.85; W 1.24; Y 1.67; A 2.02; E 2.11; L 1.95; I 2.18; K 1.99; R 1.25; C 2.22; M 1.66; Q 2.44
